In patent publication US20190225698A1 (JIANGSU HENGRUI MEDICINE, published 2019):

T1: human CD27-HisFc fusion protein (human, UniProt P26842 20-192)
T1 construct: also called CD27-HisFc (Sino Biological #10039-H03H); not shown: His tag and Fc
T1 sequence (looked up): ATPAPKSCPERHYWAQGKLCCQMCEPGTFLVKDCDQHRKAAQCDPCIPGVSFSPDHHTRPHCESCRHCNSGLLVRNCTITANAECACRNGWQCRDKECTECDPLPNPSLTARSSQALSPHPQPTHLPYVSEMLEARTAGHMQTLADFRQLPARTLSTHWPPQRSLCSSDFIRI


Target: T1, human CD27-HisFc fusion protein
Assay: BLI (Octet RED96), CD27-HisFc captured on AHC sensor, Fab in solution
Procedure: A histidine tag was added to each unique sequence of the antibody Fab fragment at the C-terminal, and the antibody Fab fragment was overexpressed in an E. coli expression system, and then purified by using Ni-NTA affinity resin. […] The collected data was processed by Data Acquisition 7.1 software and fitted to a 1:1 combined Langmuir model curve. The mAb076 and mAb077 antibodies were the two antibodies with optimal binding and were selected for further analysis and development experiments.

binding result | Binder
binds | mAb076 antibody Fab fragment with C-terminal histidine tag (Fab, V domains shown) VH: EVQLVESGGGLVQPGGSLRLSCAASGFTFSDYGIHWVRQAPGKGLEWIGWINPNRGSTNYAQKFQGRVTISRDNSKNTLYLQLNSLRAEDTAVYYCARDYGYTWYFDVWGQGTLVTVSS VL: DIQLTQSPSSLSASVGDRVTITCRASQDISSVLAWYQQKPGKAPKLLIYAASSLQSGVPSRFSGSGSGTDFTLTISSLQPEDFATYYCQQRDAWPLTFGQGTKVEIK
binds | mAb077 antibody Fab fragment with C-terminal histidine tag (Fab, V domains shown) VH: EVQLVESGGGLVQPGGSLRLSCAASGFTFSGYGIHWVRQAPGKGLEWIGWINPNRGSTKYAQKFQGRVTISRDNSKNTLYLQLNSLRAEDTAVYYCARDPGYTWYFDVWGQGTLVTVSS VL: DIQLTQSPSSLSASVGDRVTITCRASQDISSDLAWYQQKPGKAPKLLIYAASTLQSGVPSRFSGSGSGTDFTLTISSLQPEDFATYYCQQRDAWPPTFGQGTKVEIK
